Source: the domain aggregation screens of Martell et al. (2025)

assay: soluble fraction after stress (log2 fold change); higher = more stays soluble; pooled small domains, quantitative proteomics; conditions: stress: 75 degC
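Also: 20 min heating vs room temperature control held 20 min.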

Row | Sequence | soluble fraction (log2)
1 | HMKIPGIGDVYAILARVYSGPQFTWIEAGFPEDDTKAYSYLHTAIRKGSAIAILQAMRTSGALTPTIEKE | -0.0245
2 | HMKIPPIMFVRAIMVAGRQSMAIMDIEGVGTGIIVRSGYSFSNGEGKVVRIGPDKVTVNWSGKHLDLAPG | -3.8
3 | HMKIPQFAVIKQYLEQQIKTAQWAPGRQIPTEQSLADTFSVSRMTARRAVQQLADAGLLERTQGSGTFVAD | -0.162
4 | HMKISDTITEKILTDNNFSMELAKKIGIQQGSLLSSIRRNRDSRILRLWEAVMFYKEQGYTEEEIFTDY | -2.61
5 | HMKISELAKKVIASGRVTQWAKHPHIYFVNGMRKVAIELDVNGVFSISMRYYPYDPADRELVENLIRGD | -2.67
6 | HMKIVQHQLQLPVHVAGKFKGMFYKSDFVMSEDYDDDGNMILAVRLPLVDWNKFLKRTDNELSQYIKVTP | -1.64
7 | HMKKALTAEQEARVRELYFRGINYYSANRYQDAIAEWRKVLAIDPNHEKAKNNIRQTLILLK | -1.26
8 | HMKKDNLKKIKSIDEDIENELFKLGIYHFEQISIWSSKNAEWIENFLNLPNYVRANQWVEQAKILK | -1.57
9 | HMKKDRKKMLKEGIVLFEKILRGMELSPTSEPLKKVLTSFNIQNKEDLYVKLGAGVISSEEVIKELKKK | -0.0286
10 | HMKKILIVTNRSAGMVVYTIPEEGIRREFTPGETKKIPFEELEKLAYLSGGRTLMENFLKIVDTETTEELG | -2.24
11 | HMKKIYEEVSEAILTMIKNGTLKPGDKLLPVHQLAEQFQVGRSAVREALSALRAMGLIEMKQGEGTYVKNF | -1.52
12 | HMKKKVDSENLLLDILKQMQPQASTNVLRKMLTNQRISVDDQIIHRAKHVVQEGQTVEIHPKP | -0.0451
13 | HMKKLPEKFDYNEISGLRIEAQQKLNEFQPLNIGQASRISGVTPADISVLLVYLEQLKYSNPDLFFKLNPD | -1.52
14 | HMKKLTAEEIQEAKDILEKIQEIPNFKKIFGDDTIKALENSTKTGVLLPDNIISKIHTLMIRFGIK | -0.202
15 | HMKKMEEEFALFNAWVDRRLGIPLAAYKENQMQRRILTIMENSGAKTLREYQQLIEGDEGVRAAFLAHIT | -2.15
16 | HMKKPIYLTIANDIEKKIFNNDYPKNERLPSERNLAEEYGVTRMTIRNSIEYLVSKGLLEKRLGSGNYVKR | -1.55
17 | HMKKPLEYIDVDKREDFPPVPNGMRYIHFYGGTKNYRAYIAPEDISRADFMEQYPEYVPEHN | 0.237
18 | HMKKSTLLLFFLKELLEGKKISLKSFALENDINIRTAQRYIEDIEEAFPDNLLKENDFYSFV | -2.89
19 | HMKKTETVRFTTNVTHGTKIKETDVEVVKISNSALPDKVVKNKTEVIGKYATADLFKGDFATENKVTD | 0.142
20 | HMKKTIIVHVVGEVNTPGIVELNEGARIIDAINGAGGKTEEADMSKINLAYVIEDGSQIYVPSIYE | -0.387
21 | HMKKTITISNYINVRDFATMSELPVNSILSVLMKNGIFVSLNEKIDFDTAWLVGSELGLEVKQKQG | -1.58
22 | HMKKYEFIEDLPGVGPATAQKLRDLGYHTVESLAMATARELEPIGVGEKKAFSMIEAARSAIGFS | 0.284
23 | HMKKYISEEQAKQAALETAGGGSVVKIKFTTDDGIKVYEIDIINGNYEYEITVHAETGKILDVDKERIH | -1.6
24 | HMKLELSNDFYNKIRLARKENGLTQEDLAEKLNMKVGVIQKIENGVRQTDSNLMKISKFLGVEIYVE | -1.98
25 | HMKLPNGYGGIAKLSGKRRNPWRVRVTKGWSVDEQTGKAKQLFSTLGYYPTRKDALAALSAYNQNP | -1.64
26 | HMKLRLGVNIDPVATVRNARGSAYPDPVRAAIIAQEAGADGITAHLREDRRHIVDQDITSIIKAIDIPLNF | -0.129
27 | HMKLRSIQEQVQYLEKVDNQKAMQIILNMNDKASAVQILRNMKKEKAAAILAQMDPLQAAQILEDLA | -0.34
28 | HMKLSDDIIVDTIKEIIEENKNMIEQRKMGAMGPLMGKAMAKFKGKADGQTVSNVIKDEILNIIN | -0.0773
